T1: GST-thCENP-K^FL (full-length T. terrestris CENP-K with N-terminal GST)
T1 chain: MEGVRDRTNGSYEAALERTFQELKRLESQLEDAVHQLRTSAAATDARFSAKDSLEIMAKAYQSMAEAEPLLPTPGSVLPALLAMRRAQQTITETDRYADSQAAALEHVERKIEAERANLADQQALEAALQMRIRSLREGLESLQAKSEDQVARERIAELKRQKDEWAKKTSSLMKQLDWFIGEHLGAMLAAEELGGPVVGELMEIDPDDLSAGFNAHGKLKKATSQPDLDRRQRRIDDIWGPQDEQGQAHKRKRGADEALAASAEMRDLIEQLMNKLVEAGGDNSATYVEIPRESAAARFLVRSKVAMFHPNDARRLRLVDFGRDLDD

T2: GST-thCENP-K^ΔN75
T2 chain: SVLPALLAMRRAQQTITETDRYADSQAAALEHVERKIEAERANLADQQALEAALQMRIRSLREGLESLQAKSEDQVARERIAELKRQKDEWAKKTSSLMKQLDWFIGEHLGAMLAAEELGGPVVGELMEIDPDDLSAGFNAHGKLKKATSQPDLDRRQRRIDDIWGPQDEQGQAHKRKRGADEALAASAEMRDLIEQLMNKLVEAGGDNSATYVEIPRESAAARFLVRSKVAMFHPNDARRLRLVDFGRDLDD

T3: GST-ctCENP-I^NT
T3 chain: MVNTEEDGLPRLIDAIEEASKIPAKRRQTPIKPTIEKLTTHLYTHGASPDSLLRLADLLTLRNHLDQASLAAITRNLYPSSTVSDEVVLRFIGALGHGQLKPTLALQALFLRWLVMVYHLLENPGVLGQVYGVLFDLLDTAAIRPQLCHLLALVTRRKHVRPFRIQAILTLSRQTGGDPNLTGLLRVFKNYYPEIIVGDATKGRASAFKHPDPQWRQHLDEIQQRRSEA


Key:
[1] = molecular target: full-length T. terrestris CENP-K (thCENP-K) (Thielavia terrestris); assay: AUC; sedimentation velocity, 4°C, 42 000 rpm, PBS; continuous c(s) model in SEDFIT
[2] = molecular target: C. thermophilum CENP-I residues 1-229 (ctCENP-I^NT), untagged; assay: GST pull-down; conditions: in the presence of thCENP-K; parent: est. 1.0; read off a plot
[3] = molecular target: thCENP-H/K complex (full-length thCENP-H with full-length thCENP-K) (Thielavia terrestris); assay: AUC; sedimentation velocity, 4°C, 42 000 rpm, PBS; continuous c(s) model in SEDFIT
[4] = molecular target: T1, GST-thCENP-K^FL (full-length T. …); assay: GST pull-down; conditions: chain shown with the change;; parent: est. 1.0; read off a plot
GST-thCENP-K^ΔN75 = molecular target: T2, GST-thCENP-K^ΔN75; assay: GST pull-down; conditions: chain shown with the change;; parent: est. 1.0; read off a plot
GST-ctCENP-I^NT = molecular target: T3, GST-ctCENP-I^NT; assay: GST pull-down; conditions: chain shown with the change;; parent: est. 1.0; read off a plot

ratio to parent [4] | ratio to parent (GST-thCENP-K^ΔN75) | ratio to parent (GST-ctCENP-I^NT) | Molecule | also measured
 |  |  | full-length T. terrestris CENP-H (thCENP-H) (natural protein) | stoichiometry N [1]: 1
 |  |  | GST-thCENP-H WT R220E; L224A | ratio to parent [2]: 0.2
 |  |  | C. thermophilum CENP-I residues 1-229 (ctCENP-I^NT), untagged (domain or fragment) | stoichiometry N [3]: 1
 |  |  | GST-thCENP-H WT I205A; L219A | ratio to parent [2]: 0.63
0.89 | 0.68 |  | full-length T. terrestris CENP-H (thCENP-H) L219A (protein) MAATASTATPTPLPHFTEREASVLALYDRLRQLQLELALLTSQRSHGVIETSASRRAENDLAVDEARLLEARATLDLRDSVVENVVTLQPILNAVHHATHASPLERDLLPYTEQRDATATKVASLCADLDSAWGRLAELETESLRATQRNMELASEVLRLAAGTNDKTPSQLEGGRLEMELAGHEAEMKSNRRRWRIMKGAASAIVAGSGIDWVRDERARDLVLDLPD | 
 | 1.1 | 0.36 | full-length T. terrestris CENP-H (thCENP-H) L224A (protein) MAATASTATPTPLPHFTEREASVLALYDRLRQLQLELALLTSQRSHGVIETSASRRAENDLAVDEARLLEARATLDLRDSVVENVVTLQPILNAVHHATHASPLERDLLPYTEQRDATATKVASLCADLDSAWGRLAELETESLRATQRNMELASEVLRLAAGTNDKTPSQLEGGRLEMELAGHEAEMKSNRRRWRIMKGAASAIVAGSGIDWVRDERLRDLVADLPD | 
 | 1.1 | 0.13 | full-length T. terrestris CENP-H (thCENP-H) R220E; L224A (protein) MAATASTATPTPLPHFTEREASVLALYDRLRQLQLELALLTSQRSHGVIETSASRRAENDLAVDEARLLEARATLDLRDSVVENVVTLQPILNAVHHATHASPLERDLLPYTEQRDATATKVASLCADLDSAWGRLAELETESLRATQRNMELASEVLRLAAGTNDKTPSQLEGGRLEMELAGHEAEMKSNRRRWRIMKGAASAIVAGSGIDWVRDERLEDLVADLPD | 
0.97 | 1.1 | 0.32 | full-length T. terrestris CENP-H (thCENP-H) R220E (protein) MAATASTATPTPLPHFTEREASVLALYDRLRQLQLELALLTSQRSHGVIETSASRRAENDLAVDEARLLEARATLDLRDSVVENVVTLQPILNAVHHATHASPLERDLLPYTEQRDATATKVASLCADLDSAWGRLAELETESLRATQRNMELASEVLRLAAGTNDKTPSQLEGGRLEMELAGHEAEMKSNRRRWRIMKGAASAIVAGSGIDWVRDERLEDLVLDLPD | 
0.97 |  | 1.2 | full-length T. terrestris CENP-H (thCENP-H) W213A (protein) MAATASTATPTPLPHFTEREASVLALYDRLRQLQLELALLTSQRSHGVIETSASRRAENDLAVDEARLLEARATLDLRDSVVENVVTLQPILNAVHHATHASPLERDLLPYTEQRDATATKVASLCADLDSAWGRLAELETESLRATQRNMELASEVLRLAAGTNDKTPSQLEGGRLEMELAGHEAEMKSNRRRWRIMKGAASAIVAGSGIDAVRDERLRDLVLDLPD | 
0.88 | 0.33 | 1.1 | full-length T. terrestris CENP-H (thCENP-H) I205A; I211A (protein) MAATASTATPTPLPHFTEREASVLALYDRLRQLQLELALLTSQRSHGVIETSASRRAENDLAVDEARLLEARATLDLRDSVVENVVTLQPILNAVHHATHASPLERDLLPYTEQRDATATKVASLCADLDSAWGRLAELETESLRATQRNMELASEVLRLAAGTNDKTPSQLEGGRLEMELAGHEAEMKSNRRRWRIMKGAASAAVAGSGADWVRDERLRDLVLDLPD | 
 | 0.46 | 1.2 | full-length T. terrestris CENP-H (thCENP-H) I211A; L219A (protein) MAATASTATPTPLPHFTEREASVLALYDRLRQLQLELALLTSQRSHGVIETSASRRAENDLAVDEARLLEARATLDLRDSVVENVVTLQPILNAVHHATHASPLERDLLPYTEQRDATATKVASLCADLDSAWGRLAELETESLRATQRNMELASEVLRLAAGTNDKTPSQLEGGRLEMELAGHEAEMKSNRRRWRIMKGAASAIVAGSGADWVRDERARDLVLDLPD | 
0.95 | 0.7 | 1.2 | full-length T. terrestris CENP-H (thCENP-H) I211A (protein) MAATASTATPTPLPHFTEREASVLALYDRLRQLQLELALLTSQRSHGVIETSASRRAENDLAVDEARLLEARATLDLRDSVVENVVTLQPILNAVHHATHASPLERDLLPYTEQRDATATKVASLCADLDSAWGRLAELETESLRATQRNMELASEVLRLAAGTNDKTPSQLEGGRLEMELAGHEAEMKSNRRRWRIMKGAASAIVAGSGADWVRDERLRDLVLDLPD | 
0.94 | 0.65 | 1.1 | full-length T. terrestris CENP-H (thCENP-H) I205A (protein) MAATASTATPTPLPHFTEREASVLALYDRLRQLQLELALLTSQRSHGVIETSASRRAENDLAVDEARLLEARATLDLRDSVVENVVTLQPILNAVHHATHASPLERDLLPYTEQRDATATKVASLCADLDSAWGRLAELETESLRATQRNMELASEVLRLAAGTNDKTPSQLEGGRLEMELAGHEAEMKSNRRRWRIMKGAASAAVAGSGIDWVRDERLRDLVLDLPD | 
0.9 | 0.36 | 1.1 | full-length T. terrestris CENP-H (thCENP-H) I205A; L219A (protein) MAATASTATPTPLPHFTEREASVLALYDRLRQLQLELALLTSQRSHGVIETSASRRAENDLAVDEARLLEARATLDLRDSVVENVVTLQPILNAVHHATHASPLERDLLPYTEQRDATATKVASLCADLDSAWGRLAELETESLRATQRNMELASEVLRLAAGTNDKTPSQLEGGRLEMELAGHEAEMKSNRRRWRIMKGAASAAVAGSGIDWVRDERARDLVLDLPD | 

From PMC6326798
